In publication PMC11871066, “Structure-based discovery of hydrocarbon-stapled paxillin peptides that block FAK scaffolding in cancer” (Nature Communications, 2025):
Bridge positions count the residues as written; N and C are the ends. Square brackets hold non-standard residues; d marks the D form. R8 = C=CCCCCCC[C@@](C)(N)C(=O)O; R5 = C=CCCC[C@@](C)(N)C(=O)O; S5 = C=CCCC[C@](C)(N)C(=O)O

How the values were obtained:
[1] = target: T1, recombinant FAK FAT protein (fluorescence polarisation assay) (human); test: fluorescence polarisation; competition: FAT 25 µM, TAMRA-LD2 L10D probe 0.1 µM, peptide titrated from 1.25 mM, 3 h; 20 mM Tris-Cl pH 8.0, 200 mM NaCl, 0.05% β-mercaptoethanol, 0.1% Triton-X 100, 5% glycerol; Ki calculated from IC50; settings: both partners purified
T1 construct: focal adhesion kinase (FAK), focal adhesion targeting (FAT) domain

[2] = target: T2, biotinylated AviTag FAK FAT protein (human, biotin); test: SPR; biotinylated AviTag FAT immobilised on a streptavidin (SADH) biosensor, ForteBio Pioneer FE, OneStep gradient injection at 150 µl/min; 100 mM Tris-Cl pH 8.0, 200 mM NaCl, 0.05% Tween-20; peptides 200 µM to 97 nM; KD from kinetic data, one-site model; settings: both partners purified
T2 construct: focal adhesion kinase (FAK), focal adhesion targeting (FAT) domain; captured on a streptavidin biosensor; also called focal adhesion targeting (FAT) domain

Kd [2]	Binder	Ki [1]
155 µM	Ac-NL[R8]EWDRLL[S5]EWN-NH2 (staple 3-10) [stapled peptide 1933]	281 µM
22.6 µM	Ac-NL[R8]QLDRLL[S5]QLN-NH2 (staple 3-10) [stapled peptide 1910]	46.8 µM
> 200 µM	Ac-[R8]ELDRLL[S5]-NH2 (staple 1-8) [truncated stapled peptide 2011]	> 333 µM
3.4 µM	Ac-NL[R8]ALDRLL[S5]ELN-NH2 (staple 3-10) [stapled peptide 2009]	26.7 µM
> 200 µM	Ac-NLSELDRL[R5]LE[S5]N-NH2 (staple 9-12) [stapled peptide 1921]	492 µM
120 µM	Ac-NLSE[R8]DRLLLE[S5]N-NH2 (staple 5-12) [stapled peptide 1914]	> 1250 µM
146 µM	Ac-NLS[R8]LDRLLL[S5]LN-NH2 (staple 4-11) [stapled peptide 1905]	> 1250 µM
27.9 µM	Ac-N[R8]SELDRL[S5]LELN-NH2 (staple 2-9) [stapled peptide 2017]	80.6 µM
80.6 µM	Ac-NLSE[S5]DRL[S5]LELN-NH2 (staple 5-9) [stapled peptide 1919]	38.6 µM
60.6 µM	Ac-NL[R8]ELDRLW[S5]ELN-NH2 (staple 3-10) [stapled peptide 2007]	190 µM
13.7 µM	Ac-DL[R8]ELDRLL[S5]ELD-NH2 (staple 3-10) [stapled peptide 1913]	21.8 µM
12.6 µM	Ac-NL[R8]ALDALL[S5]ELN-NH2 (staple 3-10) [stapled peptide 2010]	68.5 µM
–	Ac-SLGSNL[R8]ELDRLL[S5]ELNAVQH-NH2 (staple 7-14; SMILES CC(=O)N[C@@H](CO)C(=O)N[C@@H](CC(C)C)C(=O)NCC(=O)N[C@@H](CO)C(=O)N[C@@H](CC(N)=O)C(=O)N[C@@H](CC(C)C)C(=O)N[C@]1(C)CCCCCCC=CCCC[C@@](C)(C(=O)N[C@@H](CCC(=O)O)C(=O)N[C@@H](CC(C)C)C(=O)N[C@@H](CC(N)=O)C(=O)N[C@@H](C)C(=O)N[C@H](C(=O)N[C@@H](CCC(N)=O)C(=O)N[C@@H](Cc2c[nH]cn2)C(N)=O)C(C)C)NC(=O)[C@H](CC(C)C)NC(=O)[C@H](CC(C)C)NC(=O)[C@H](CCCNC(=N)N)NC(=O)[C@H](CC(=O)O)NC(=O)[C@H](CC(C)C)NC(=O)[C@H](CCC(=O)O)NC1=O) [stapled peptide 1920 (lengthened 1907)]	25 µM
30.6 µM	Ac-NLSELDR[S5]LLE[S5]N-NH2 (staple 8-12) [stapled peptide 2015]	114 µM
